The record followed here is publication PMC10457309.

For the experiment, the target named is HH-120 (IgM-like hACE2-Fc fusion protein) (UniProt Q9BYF1). In words: SPR.

For the substance “SARS-CoV-2 RBD (amino acids 316-512 of the S protein in the SARS-CoV-2 D614 strain) (from UniProt P0DTC2 316-512) (domain or fragment)”, the Kd amounted to 0.0264 µM.
